Values belong to the binder of their own block, whether it stands above or below them.
Columns and labels:
[1] = molecular target: T1, wild-type FIX with C-terminal His-tag (human, UniProt P00740 47-461); experiment: SPR (Biacore T200), His-tagged FIX captured by anti-His antibody, one-armed antibody as analyte; % of wild-type binding
T1 construct: Secreted mature FIX from expi293F cells; also called WT
Procedure: (§1) SPR analyses were carried out on Biacore 4000 or Biacore T200 instruments (Biacore AB, Uppsala, Sweden). For the experiments on the T200 instrument the following conditions were applied: measurements were conducted at a temperature of 25° C. Anti-His antibody at 25 μg/ml (R&D Systems, catalogue #MAB050) was immobilized on a CM5 sensor chip using standard amine coupling chemistry. […] at 25 nM were injected at a flow rate of 10 μl/min for 1 min and were captured via their His-tag by the immobilized anti-His antibody. Subsequently, 200 nM (with 4-fold serial dilutions), 1600 nM (with 3-fold serial dilutions), and 2000 nM (with 3-fold serial dilution) of mAb4-0004, mAb3-3279 and mAb4-0673, respectively, were injected at a flow rate of 50 μl/min for 5 min to allow for binding to captured FIX variant followed by a 10 min buffer injection allowing for dissociation of the monovalent anti-FIX antibodies. The running buffer used was 20 mM Tris, 150 mM NaCl, 5 mM CaCl₂, 0.05% Tween-20, 1 mg/ml BSA, pH 7.4. This was also used for dilution of anti-FIX antibody and FIX samples. Regeneration of the chip was achieved using 10 mM Glycine pH 2.0. Binding data were analysed according to a 1:1 model using BiaEvaluation 4.1 supplied by the manufacturer (Biacore AB, Uppsala, Sweden). A similar experimental set-up was used for the Biacore 4000 instrument.

[2] = molecular target: FIX K301A with C-terminal His-tag (human, UniProt P00740 47-461); experiment: SPR (Biacore T200), His-tagged FIX variant captured by anti-His antibody, one-armed antibody as analyte; % of wild-type binding
FIX K301A with C-terminal His-tag, sequence (P00740 other isoform, or with tags, fused parts or gaps K301A K301A limits assumed): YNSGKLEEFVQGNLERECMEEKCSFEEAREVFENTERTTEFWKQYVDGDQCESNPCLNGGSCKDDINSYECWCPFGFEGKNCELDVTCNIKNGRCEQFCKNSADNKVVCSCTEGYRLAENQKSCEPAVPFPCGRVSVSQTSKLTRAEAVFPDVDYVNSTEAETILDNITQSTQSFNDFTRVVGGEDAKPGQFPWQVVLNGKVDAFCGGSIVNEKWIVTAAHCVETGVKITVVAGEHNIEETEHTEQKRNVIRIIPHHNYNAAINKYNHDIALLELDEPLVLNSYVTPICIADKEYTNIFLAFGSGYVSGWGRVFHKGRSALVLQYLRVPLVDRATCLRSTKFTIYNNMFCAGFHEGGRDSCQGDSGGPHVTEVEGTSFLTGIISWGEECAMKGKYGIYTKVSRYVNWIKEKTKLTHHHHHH
Procedure: as §1
(§2) A more detailed binding analysis was conducted for residues defined as epitope residues (see example 6) using the Biacore T200 instrument.

[3] = molecular target: FIX D332A with C-terminal His-tag (human, UniProt P00740 47-461); experiment: as above
FIX D332A with C-terminal His-tag, sequence (P00740 other isoform, or with tags, fused parts or gaps D332A D332A limits assumed): as the sequence (P00740 other isoform, or with tags, fused parts or gaps K301A K301A limits assumed) above, with A301K, D332A counted along it
Procedure: as §1, §2

[4] = molecular target: FIX R333A with C-terminal His-tag (human, UniProt P00740 47-461); experiment: as above
FIX R333A with C-terminal His-tag, sequence (P00740 other isoform, or with tags, fused parts or gaps R333A R333A limits assumed): as the sequence (P00740 other isoform, or with tags, fused parts or gaps K301A K301A limits assumed) above, with A301K, R333A counted along it
Procedure: as §1, §2

[5] = molecular target: FIX A334L with C-terminal His-tag (human, UniProt P00740 47-461); experiment: as above
FIX A334L with C-terminal His-tag, sequence (P00740 other isoform, or with tags, fused parts or gaps A334L A334L limits assumed): as the sequence (P00740 other isoform, or with tags, fused parts or gaps K301A K301A limits assumed) above, with A301K, A334L counted along it
Procedure: as §1, §2

[6] = molecular target: FIX T335A with C-terminal His-tag (human, UniProt P00740 47-461); experiment: as above
FIX T335A with C-terminal His-tag, sequence (P00740 other isoform, or with tags, fused parts or gaps T335A T335A limits assumed): as the sequence (P00740 other isoform, or with tags, fused parts or gaps K301A K301A limits assumed) above, with A301K, T335A counted along it
Procedure: as §1, §2

[7] = molecular target: FIX L337A with C-terminal His-tag (human, UniProt P00740 47-461); experiment: as above
FIX L337A with C-terminal His-tag, sequence (P00740 other isoform, or with tags, fused parts or gaps L337A L337A limits assumed): as the sequence (P00740 other isoform, or with tags, fused parts or gaps K301A K301A limits assumed) above, with A301K, L337A counted along it
Procedure: as §1, §2

[8] = molecular target: FIX R338A with C-terminal His-tag (human, UniProt P00740 47-461); experiment: as above
FIX R338A with C-terminal His-tag, sequence (P00740 other isoform, or with tags, fused parts or gaps R338A R338A limits assumed): as the sequence (P00740 other isoform, or with tags, fused parts or gaps K301A K301A limits assumed) above, with A301K, R338A counted along it
Procedure: as §1, §2

[9] = molecular target: FIX S339L with C-terminal His-tag (human, UniProt P00740 47-461); experiment: as above
FIX S339L with C-terminal His-tag, sequence (P00740 other isoform, or with tags, fused parts or gaps S339L S339L limits assumed): as the sequence (P00740 other isoform, or with tags, fused parts or gaps K301A K301A limits assumed) above, with A301K, S339L counted along it
Procedure: as §1, §2

[10] = molecular target: FIX T340A with C-terminal His-tag (human, UniProt P00740 47-461); experiment: as above
FIX T340A with C-terminal His-tag, sequence (P00740 other isoform, or with tags, fused parts or gaps T340A T340A limits assumed): as the sequence (P00740 other isoform, or with tags, fused parts or gaps K301A K301A limits assumed) above, with A301K, T340A counted along it
Procedure: as §1, §2

[11] = molecular target: FIX K341E with C-terminal His-tag (human, UniProt P00740 47-461); experiment: as above
FIX K341E with C-terminal His-tag, sequence (P00740 other isoform, or with tags, fused parts or gaps K341E K341E limits assumed): as the sequence (P00740 other isoform, or with tags, fused parts or gaps K301A K301A limits assumed) above, with A301K, K341E counted along it
Procedure: as §1, §2

[12] = molecular target: FIX K341A with C-terminal His-tag (human, UniProt P00740 47-461); experiment: as above
FIX K341A with C-terminal His-tag, sequence (P00740 other isoform, or with tags, fused parts or gaps K341A K341A limits assumed): as the sequence (P00740 other isoform, or with tags, fused parts or gaps K301A K301A limits assumed) above, with A301K, K341A counted along it
Procedure: as §1, §2

[13] = molecular target: FIX T343I with C-terminal His-tag (human, UniProt P00740 47-461); experiment: as above
FIX T343I with C-terminal His-tag, sequence (P00740 other isoform, or with tags, fused parts or gaps T343I T343I limits assumed): as the sequence (P00740 other isoform, or with tags, fused parts or gaps K301A K301A limits assumed) above, with A301K, T343I counted along it
Procedure: as §1, §2

[14] = molecular target: FIX T343A with C-terminal His-tag (human, UniProt P00740 47-461); experiment: as above
FIX T343A with C-terminal His-tag, sequence (P00740 other isoform, or with tags, fused parts or gaps T343A T343A limits assumed): as the sequence (P00740 other isoform, or with tags, fused parts or gaps K301A K301A limits assumed) above, with A301K, T343A counted along it
Procedure: as §1, §2

[15] = molecular target: FIX N346A with C-terminal His-tag (human, UniProt P00740 47-461); experiment: as above
FIX N346A with C-terminal His-tag, sequence (P00740 other isoform, or with tags, fused parts or gaps N346A N346A limits assumed): as the sequence (P00740 other isoform, or with tags, fused parts or gaps K301A K301A limits assumed) above, with A301K, N346A counted along it
Procedure: as §1, §2

[16] = molecular target: FIX N346Q with C-terminal His-tag (human, UniProt P00740 47-461); experiment: as above
FIX N346Q with C-terminal His-tag, sequence (P00740 other isoform, or with tags, fused parts or gaps N346Q N346Q limits assumed): as the sequence (P00740 other isoform, or with tags, fused parts or gaps K301A K301A limits assumed) above, with A301K, N346Q counted along it
Procedure: as §1, §2

[17] = molecular target: FIX D332S with C-terminal His-tag (human, UniProt P00740 47-461); experiment: as above
FIX D332S with C-terminal His-tag, sequence (P00740 other isoform, or with tags, fused parts or gaps D332S D332S limits assumed): as the sequence (P00740 other isoform, or with tags, fused parts or gaps K301A K301A limits assumed) above, with A301K, D332S counted along it
Procedure: as §1, §2

T1 sequence (P00740 other isoform, or with tags, fused parts or gaps limits assumed): as the sequence (P00740 other isoform, or with tags, fused parts or gaps K301A K301A limits assumed) above, with A301K counted along it

Binding (%) relative to wild-type [1]: 100%
Binding (%) relative to wild-type [2]: 93%
Binding (%) relative to wild-type [3]: 17%
Binding (%) relative to wild-type [4]: 4%
Binding (%) relative to wild-type [5]: 44%
Binding (%) relative to wild-type [6]: 71%
Binding (%) relative to wild-type [7]: 7%
Binding (%) relative to wild-type [8]: 3%
Binding (%) relative to wild-type [9]: 73%
Binding (%) relative to wild-type [10]: 67%
Binding (%) relative to wild-type [11]: 53%
Binding (%) relative to wild-type [12]: 96%
Binding (%) relative to wild-type [13]: 90%
Binding (%) relative to wild-type [14]: 63%
Binding (%) relative to wild-type [15]: 51%
Binding (%) relative to wild-type [16]: 94%
B1: mAb4-0673 (monovalent one-armed variant of mAb0-1886) (antibody, V domains shown)
VH: EVQLVQSGAEVKKPGESLRISCKGSGYSFTSYWIGWVRQMPGKGLEWMGMIDPSDSYTDYGPSFRGHVTISADKSISTAYLQWSSLKASDTAMYYCARVRIMEGAFDIWGQGTMVTVSS
VL: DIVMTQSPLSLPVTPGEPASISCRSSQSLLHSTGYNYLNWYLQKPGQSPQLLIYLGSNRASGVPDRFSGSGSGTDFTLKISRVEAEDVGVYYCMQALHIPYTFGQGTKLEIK

Binding (%) relative to wild-type [1]: 100%
Binding (%) relative to wild-type [2]: 66%
Binding (%) relative to wild-type [17]: 66%
Binding (%) relative to wild-type [3]: 50%
Binding (%) relative to wild-type [4]: 66%
Binding (%) relative to wild-type [5]: 51%
Binding (%) relative to wild-type [6]: 62%
Binding (%) relative to wild-type [7]: 52%
Binding (%) relative to wild-type [8]: 2%
Binding (%) relative to wild-type [9]: 66%
Binding (%) relative to wild-type [10]: 37%
Binding (%) relative to wild-type [11]: 2%
Binding (%) relative to wild-type [12]: 21%
Binding (%) relative to wild-type [13]: 48%
Binding (%) relative to wild-type [14]: 38%
Binding (%) relative to wild-type [15]: 73%
B2: mAb4-0004 (monovalent one-armed variant of mAb0-1998) (antibody, V domains shown)
VH: EVQLVESGGGLVQPGRSLKLSCAASGFTFDDYAMHWVRQVPGKGLEWVSGISWNGDNIGYVDSVKGRFTISRDNAKNSLYLQLNSLRAEDTALYYCVKSYGSGSFYNAFDSWGQGTLVTVSS
VL: DIQMTQSPSTLSASAGDRVTITCRASQSISSWLAWYQQKPGKAPKFLIYKASSLESGVPSRFSGSGSGTEFSLTISSLQPDDFATYYCLEYSSYIRTFGQGTKVEIK

Source: patent publication US20250011468A1 (Novo Nordisk, published 2025)
